Article PMC4832331, “Structural insights into the Escherichia coli lysine decarboxylases and molecular determinants of interaction with the AAA+ ATPase RavA” (Scientific Reports, 2016)

B4: Escherichia coli AAA+ ATPase RavA (enzyme)
chain: not shown
notes: RavA, AAA+ ATPase of E. coli; It was mixed in the presence of 2 mM ADP and 10 mM MgCl2
B5: Escherichia coli inducible lysine decarboxylase LdcI (enzyme, E. coli)
chain: MNVIAILNHMGVYFKEEPIRELHRALERLNFQIVYPNDRDDLLKLIENNARLCGVIFDWDKYNLELCEEISKMNENLPLYAFANTYSTLDVSLNDLRLQISFFEYALGAAEDIANKIKQTTDEYINTILPPLTKALFKYVREGKYTFCTPGHMGGTAFQKSPVGSLFYDFFGPNTMKSDISISVSELGSLLDHSGPHKEAEQYIARVFNADRSYMVTNGTSTANKIVGMYSAPAGSTILIDRNCHKSLTHLMMMSDVTPIYFRPTRNAYGILGGIPQSEFQHATIAKRVKETPNATWPVHAVITNSTYDGLLYNTDFIKKTLDVKSIHFDSAWVPYTNFSPIYEGKCGMSGGRVEGKVIYETQSTHKLLAAFSQASMIHVKGDVNEETFNEAYMMHTTTSPHYGIVASTETAAAMMKGNAGKRLINGSIERAIKFRKEIKRLRTESDGWFFDVWQPDHIDTTECWPLRSDSTWHGFKNIDNEHMYLDPIKVTLLTPGMEKDGTMSDFGIPASIVAKYLDEHGIVVEKTGPYNLLFLFSIGIDKTKALSLLRALTDFKRAFDLNLRVKNMLPSLYREDPEFYENMRIQELAQNIHKLIVHHNLPDLMYRAFEVLPTMVMTPYAAFQKELHGMTEEVYLDEMVGRINANMILPYPPGVPLVMPGEMITEESRPVLEFLQMLCEIGAHYPGFETDIHGAYRQADGRYTVKVLKEESKK
notes: LdcI (CadA), inducible lysine decarboxylase of E. coli; wing domain 1-129, core domain 130-563, CTD 564-715; Decamer of two pentameric rings; The whole enzyme (715 residues) is likely; PLP cofactor was in the buffers; also called CadA; LdcIa (at pH 6.2); copies: 10

What was measured:
[1] = target: the molecule itself; experiment: cryo-EM structure; LdcC alone, 2 mg/ml, 25 mM HEPES, 100 mM NaCl, 0.2 mM PLP, 1 mM DTT, pH 7.2 (results say pH 7.5); no ppGpp
[2] = target: the molecule itself; experiment: not stated; purified chimeras alone; decamers 'visually indistinguishable from the wild-type proteins'
[3] = target: B4; experiment: negative stain EM; 0.4 mg/ml RavA mixed with 0.3 mg/ml LdcI, LdcC, LdcCI or LdcIC; 2 mM ADP, 10 mM MgCl2, 20 mM Hepes, 150 mM NaCl, pH 7.4; 10 min at room temperature; 2% uranyl acetate; conditions: both partners purified
[4] = target: B5; experiment: as above; conditions: both partners purified
[5] = target: the molecule itself; experiment: cryo-EM structure; LdcI alone, 2 mg/ml, 25 mM MES, 100 mM NaCl, 0.2 mM PLP, 1 mM DTT, pH 6.2; no ppGpp

B1: Escherichia coli biosynthetic lysine decarboxylase LdcC (enzyme, E. coli)
chain: MNIIAIMGPHGVFYKDEPIKELESALVAQGFQIIWPQNSVDLLKFIEHNPRICGVIFDWDEYSLDLCSDINQLNEYLPLYAFINTHSTMDVSVQDMRMALWFFEYALGQAEDIAIRMRQYTDEYLDNITPPFTKALFTYVKERKYTFCTPGHMGGTAYQKSPVGCLFYDFFGGNTLKADVSISVTELGSLLDHTGPHLEAEEYIARTFGAEQSYIVTNGTSTSNKIVGMYAAPSGSTLLIDRNCHKSLAHLLMMNDVVPVWLKPTRNALGILGGIPRREFTRDSIEEKVAATTQAQWPVHAVITNSTYDGLLYNTDWIKQTLDVPSIHFDSAWVPYTHFHPIYQGKSGMSGERVAGKVIFETQSTHKMLAALSQASLIHIKGEYDEEAFNEAFMMHTTTSPSYPIVASVETAAAMLRGNPGKRLINRSVERALHFRKEVQRLREESDGWFFDIWQPPQVDEAECWPVAPGEQWHGFNDADADHMFLDPVKVTILTPGMDEQGNMSEEGIPAALVAKFLDERGIVVEKTGPYNLLFLFSIGIDKTKAMGLLRGLTEFKRSYDLNLRIKNMLPDLYAEDPDFYRNMRIQDLAQGIHKLIRKHDLPGLMLRAFDTLPEMIMTPHQAWQRQIKGEVETIALEQLVGRVSANMILPYPPGVPLLMPGEMLTKESRTVLDFLLMLCSVGQHYPGFETDIHGAKQDEDGVYRVRVLK
notes: LdcC, biosynthetic lysine decarboxylase of E. coli; Decamer; PLP cofactor was in the buffers; also called constitutive lysine decarboxylase; copies: 10
stoichiometry N [1]: 10

B2: LdcCI chimera (LdcC with the C-terminal β-sheet of LdcI) (enzyme, E. coli, UniProt P52095 1-630, looked up)
chain: MNIIAIMGPHGVFYKDEPIKELESALVAQGFQIIWPQNSVDLLKFIEHNPRICGVIFDWDEYSLDLCSDINQLNEYLPLYAFINTHSTMDVSVQDMRMALWFFEYALGQAEDIAIRMRQYTDEYLDNITPPFTKALFTYVKERKYTFCTPGHMGGTAYQKSPVGCLFYDFFGGNTLKADVSISVTELGSLLDHTGPHLEAEEYIARTFGAEQSYIVTNGTSTSNKIVGMYAAPSGSTLLIDRNCHKSLAHLLMMNDVVPVWLKPTRNALGILGGIPRREFTRDSIEEKVAATTQAQWPVHAVITNSTYDGLLYNTDWIKQTLDVPSIHFDSAWVPYTHFHPIYQGKSGMSGERVAGKVIFETQSTHKMLAALSQASLIHIKGEYDEEAFNEAFMMHTTTSPSYPIVASVETAAAMLRGNPGKRLINRSVERALHFRKEVQRLREESDGWFFDIWQPPQVDEAECWPVAPGEQWHGFNDADADHMFLDPVKVTILTPGMDEQGNMSEEGIPAALVAKFLDERGIVVEKTGPYNLLFLFSIGIDKTKAMGLLRGLTEFKRSYDLNLRIKNMLPDLYAEDPDFYRNMRIQDLAQGIHKLIRKHDLPGLMLRAFDTLPEMIMTPHQAWQRQIKGMTEEVYLDEMVGRVSANMILPYPPGVPLLMPGEMLTKESRTVLDFLLMLCSVGQHYPGFETDIHGAYRQADGRYTVKVLKEESKK
notes: E. coli LdcC up to the first exchanged stretch; E. coli LdcI, first strand region of the C-terminal β-sheet; E. coli LdcC between the two exchanged stretches; E. coli LdcI from 697 to the C-terminus, second strand region of the C-terminal β-sheet; Synthetic ldcCI gene of 2154 bp (GenScript) in the pET-TEV vector; source: E. coli Rosetta 2 (DE3), purified (Ni-NTA, TEV cleavage, second Ni-NTA, …)
stoichiometry N [2]: 10
binding result [3]: binds

B3: LdcIC chimera (LdcI with the C-terminal β-sheet of LdcC) (enzyme, E. coli, UniProt P0A9H3 1-630, looked up)
chain: MNVIAILNHMGVYFKEEPIRELHRALERLNFQIVYPNDRDDLLKLIENNARLCGVIFDWDKYNLELCEEISKMNENLPLYAFANTYSTLDVSLNDLRLQISFFEYALGAAEDIANKIKQTTDEYINTILPPLTKALFKYVREGKYTFCTPGHMGGTAFQKSPVGSLFYDFFGPNTMKSDISISVSELGSLLDHSGPHKEAEQYIARVFNADRSYMVTNGTSTANKIVGMYSAPAGSTILIDRNCHKSLTHLMMMSDVTPIYFRPTRNAYGILGGIPQSEFQHATIAKRVKETPNATWPVHAVITNSTYDGLLYNTDFIKKTLDVKSIHFDSAWVPYTNFSPIYEGKCGMSGGRVEGKVIYETQSTHKLLAAFSQASMIHVKGDVNEETFNEAYMMHTTTSPHYGIVASTETAAAMMKGNAGKRLINGSIERAIKFRKEIKRLRTESDGWFFDVWQPDHIDTTECWPLRSDSTWHGFKNIDNEHMYLDPIKVTLLTPGMEKDGTMSDFGIPASIVAKYLDEHGIVVEKTGPYNLLFLFSIGIDKTKALSLLRALTDFKRAFDLNLRVKNMLPSLYREDPEFYENMRIQELAQNIHKLIVHHNLPDLMYRAFEVLPTMVMTPYAAFQKELHGEVETIALEQLVGRINANMILPYPPGVPLVMPGEMITEESRPVLEFLQMLCEIGAHYPGFETDIHGAKQDEDGVYRVRVLKMAG
notes: E. coli LdcI up to the first exchanged stretch; E. coli LdcC, first strand region of the C-terminal β-sheet; E. coli LdcI between the two exchanged stretches; E. coli LdcC from 697 to the C-terminus, second strand region of the C-terminal β-sheet; Synthetic ldcIC gene of 2148 bp (GenScript) in the pET-TEV vector; source: E. coli Rosetta 2 (DE3), purified (Ni-NTA, TEV cleavage, second Ni-NTA, …)
stoichiometry N [2]: 10

B4
binding result [4]: binds

B5
stoichiometry N [5]: 10
